Test results: patent US20020090682A1 (AMRAD OPERATIONS, published 2002)

Legend:
[1] = molecular target: T1, murine NR4 (IL-13 receptor α-chain, IL-13Rα) expressed in COS cells (murine, UniProt O09030 27-424); test: Scatchard analysis of 125I-IL-13 binding to COS cells expressing NR4
T1 construct: also called IL-13Rα(NR4)
T1 sequence: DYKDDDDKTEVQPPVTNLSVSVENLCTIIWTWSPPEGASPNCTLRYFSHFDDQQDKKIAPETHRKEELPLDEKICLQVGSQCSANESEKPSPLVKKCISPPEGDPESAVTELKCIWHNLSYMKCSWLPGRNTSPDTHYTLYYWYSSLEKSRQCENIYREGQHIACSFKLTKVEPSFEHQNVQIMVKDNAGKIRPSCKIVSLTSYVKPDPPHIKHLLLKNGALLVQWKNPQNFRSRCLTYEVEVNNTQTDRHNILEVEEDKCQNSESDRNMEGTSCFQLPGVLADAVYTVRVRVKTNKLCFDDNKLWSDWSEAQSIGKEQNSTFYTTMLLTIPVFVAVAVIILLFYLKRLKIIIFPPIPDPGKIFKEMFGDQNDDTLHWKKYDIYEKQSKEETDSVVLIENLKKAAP

[2] = molecular target: T2, IL-13Rα(NR4) expressed in CTLL cells (high affinity IL-13 receptor; cells also carry the IL-4 receptor) (murine, UniProt P16382 26-810); test: Scatchard analysis of 125I-IL-13 binding to CTLL cells expressing the IL-13Rα(NR4)
T2 sequence (P16382 26-810): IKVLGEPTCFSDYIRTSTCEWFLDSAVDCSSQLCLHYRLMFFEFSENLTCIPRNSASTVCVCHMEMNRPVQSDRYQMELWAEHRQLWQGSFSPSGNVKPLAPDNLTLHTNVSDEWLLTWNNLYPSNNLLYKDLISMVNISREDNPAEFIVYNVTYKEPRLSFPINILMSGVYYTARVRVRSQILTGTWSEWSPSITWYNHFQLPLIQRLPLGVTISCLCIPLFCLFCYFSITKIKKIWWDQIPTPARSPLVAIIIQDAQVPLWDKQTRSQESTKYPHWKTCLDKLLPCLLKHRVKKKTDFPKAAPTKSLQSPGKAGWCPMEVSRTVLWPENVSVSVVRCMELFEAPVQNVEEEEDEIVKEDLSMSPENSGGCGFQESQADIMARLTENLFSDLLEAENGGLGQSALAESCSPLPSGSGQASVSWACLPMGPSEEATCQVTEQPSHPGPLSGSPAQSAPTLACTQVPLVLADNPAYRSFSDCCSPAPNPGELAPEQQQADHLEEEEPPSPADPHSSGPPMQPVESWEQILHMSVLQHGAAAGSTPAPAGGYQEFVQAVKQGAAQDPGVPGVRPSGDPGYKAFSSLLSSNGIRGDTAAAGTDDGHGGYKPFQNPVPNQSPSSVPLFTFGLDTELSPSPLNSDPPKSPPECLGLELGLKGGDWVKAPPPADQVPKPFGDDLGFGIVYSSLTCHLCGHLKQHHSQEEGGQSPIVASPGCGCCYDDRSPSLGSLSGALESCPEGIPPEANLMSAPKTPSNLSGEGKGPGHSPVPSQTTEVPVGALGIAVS
Method: Data have been normalised to 1×10⁴ COS cells and 1×10⁶ CTLL cells and binding was carried out on ice for 2 to 4 hours.
A likely candidate based on previous studies is the IL-4Rα.

[3] = molecular target: T2, IL-13Rα(NR4) expressed in CTLL cells …; test: unlabelled IL-13 competing with 125I-IL-13 for binding to CTLL cells expressing the IL-13Rα(NR4)

B1: IL-13 (obtained commercially, R & D Systems) (ligand)
chain: APGPVPRSVSLPLTLKELIEELSNITQDQTPLCNGSMVWSVDLAAGGFCVALDSLTNISNCNAIYRTQRILHGLCNRKAPTTVSSLPDTKIEVAHFITKLLSYTKQLFRHGPF
modifications: Radioiodinated (125I, iodine monochloride method) in the labelled form.
notes: the receptor and the cells are murine; also called unlabelled IL-13
Kd [1]: 2000 to 10000 pM | Kd [2]: ~75 pM | IC50 [3]: ~300 pM
